Results reported in patent publication US20250051407A1, “De novo designed sequence-specific DNA binding proteins” (University of Washington, priority 2023, published 2025).

Tests used:
13 unique dsDNA targets = assay: All-by-all yeast surface display screen of DBP design hits; assay type: binding; details: yeast display screen against the 13 DNA targets, versus original DBP35
In short: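 EBY100 yeast displaying designs were induced 16–24 h at 30°C, then labelled with biotinylated dsDNA either with avidity (SAPE premixed at one-quarter of target concentration) or without (target, then SAPE/FITC). Competition ran without avidity at 1 μM biotinylated duplex plus 8 μM unlabelled competitor. Flow cytometry read-out is the SAPE/FITC ratio over gated expressing cells.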

[1] = tested on: biotinylated target dsDNA with non-biotinylated competitor dsDNA; assay: Yeast display competition assay with base-substituted competitor dsDNA; assay type: binding
[2] = tested on: biotinylated dsDNA oligo (designed DNA target); assay: Clonal yeast surface display binding to biotinylated dsDNA oligo
Description: For each set of designs, synthetic oligonucleotides (230 base pairs) encoding the 50-65-residue designed proteins were ordered in a single pool and cloned into a yeast surface-expression vector. Cells containing designs that bound each DNA target were enriched by several rounds of fluorescence-activated cell sorting (FACS) using fluorescently labeled target dsDNA oligos. The naive and sorted populations for each DNA target were deep sequenced, and the frequency of each design in the starting population and after each sort was determined. From this analysis, we identified 97 designs that were substantially enriched (>100×) in pools sorted with their intended dsDNA target compared to the naive library. […]
For yeast display characterization of individual designs, including competition assays, DNA sequences encoding the proteins of interest were purchased as Integrated DNA Technologies (IDT) E-Blocks™, transformed into yeast cells, and incubated in 96 well culture plates. […] For each individual sample, gating of the expression population was performed using the CytoFlow™ Gaussian Mixture Model and the ratio of SAPE channel intensity to FITC channel intensity (binding signal/expression signal) was calculated for all gated expression events of the sample.

[3] = tested on: synTF-specific cis-regulatory elements (CRE) in HEK293T cells; assay: Transcriptional activation by synTFs in HEK293T cells (ENGRAM); assay type: cell-based; details: DBP fused to GCN4 dimerization domain and VP64; HEK293T cells expressing PEmax; dependent on spacing between motifs
Description: Next, we investigated whether the DBPs can be used as activators in mammalian cells. A set of synthetic transcription factors (synTFs) were created by fusing the GCN4 dimerization domain and the VP64 activation domain to the C-termini of DBPs 9, 35opt, 48, 57, and 60 which recognize 3 unique motifs. The dimerization domain allows the DBPs to recognize a palindromic target sequence consisting of two binding motifs, improving the binding affinity to the DNA sequence (FIG. 2C). We created synTF specific cis-regulatory elements (CRE) with 4 repeats spaced by 6 bp to drive the expression of downstream genes, and used the ENGRAM (43) recording technology to measure the activity of the synTFs in HEK293 cells. In ENGRAM, each CRE drives the expression of a uniquely barcoded pegRNA, which upon expression is recorded into the DNA TAPE at the HEK3 locus by prime-editor (PEmax); the activity of individual synTFs can be measured as the abundance of the barcode on the DNA TAPE (FIG. 2C). We first tested 3 different spacings-1 bp, 3 bp, and 5 bp-between the palindromic binding motifs to maximize the recorder activity. 3 synTF specific recorders and 1 TCF-LEF-recorder (negative control) were mixed with ratio 2:2:2:1 and co-transfected with synTFs into the HEK293T cells expressing PEmax. Cells were harvested and analyzed 2 days post-transfection. After analyzing the barcode abundance on the DNA TAPE, we observed 3-5 fold activation for DBP9/DBP35 and DBP57/DBP60 (FIG. 2D).
HEK293T cells expressing PEmax™ were cultured in DMEM High glucose (GIBCO), supplemented with 10% Fetal Bovine Serum (Rocky Mountain Biologicals) and 1% penicillin-streptomycin (GIBCO). Cells were grown with 5% CO2 at 37° C. 1×10^5 cells were seeded on a 48-well plate a day before transfection. Enhancer plasmid and binder plasmid were mixed with a ratio of 2:1. Enhancer variants and background control were mixed with a ratio of 2:2:2:1. A total of 300 ng of plasmid were transfected using Lipofectamine™ 3000 (ThermoFisher, L3000015), following the manufacturer's protocol. Cells were harvested 2 days post-transfection. Genomic DNA was extracted based on the protocol described earlier (43). Briefly, cells were lysed using freshly prepared lysis buffer (10 mM Tris-HCl, pH 7.5; 0.05% SDS; 25 µg/ml protease (ThermoFisher)) for each well. The genomic DNA mixture was incubated at 50° C. for 1 h, followed by an 80° C. enzyme inactivation step for 30 min. The DNA TAPE was amplified from the genomic DNA directly for next generation sequencing. Recorded information was extracted via custom analysis code. Each enhancer has a unique barcode representing its activity. Transcription activation was measured as the fold change in the barcode abundance relative to the negative control barcode. All measurements were performed in triplicates.

Off-target binding (13 unique dsDNA targets): strongly decreased off-target binding | Detectable binding down to (dsDNA concentration) [2]: ~150 pM
B1: DBP35opt: optimized DBP35 combining R33N, K18V and P42Q; sequence matches Table 1 row SEQ ID NO: 50, DNA target B (protein)
chain: GFGRAVKEKRKELGLTQVEFAEKAGLSRRTIINIERGYIVPQKATKEKIAKALGTSVEELEQA
Number of base positions of specificity [1]: 7 base positions | Fold activation of synTFs measured as normalized barcode abundance in the DNA TAPE [3]: 3-5 fold
